Values of other authors as cited in paper PMC8979592.

Target: clathrin (UniProt Q00610)

clathrin (from UniProt Q00610)
Kd: 120 µM
